This passage reports IC50 results from publication PMC2553845 (2008).

Holding throughout (assay): ELISA
One assay concerns the target T1, SCRIB PDZ domain 3 (human, UniProt Q14160 1004-1093).
T1 chain: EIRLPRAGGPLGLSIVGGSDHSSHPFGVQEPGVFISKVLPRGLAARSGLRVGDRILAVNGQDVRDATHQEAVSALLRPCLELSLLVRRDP

In another assay the target is T2, SCRIB PDZ domain 2 (human, UniProt Q14160 862-950).
T2 chain: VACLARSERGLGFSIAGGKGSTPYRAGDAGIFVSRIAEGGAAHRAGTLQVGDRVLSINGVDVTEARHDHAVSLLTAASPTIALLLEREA

The next assay addresses SCRIB PDZ domain 1 (human, UniProt Q14160 728-815).

What is called IC50 is the concentration at which inhibition is half-maximal. A high value points to lower potency.

Where no end group is shown, it is not given here.

Chain of SCRIB PDZ domain 1 (Q14160 728-815): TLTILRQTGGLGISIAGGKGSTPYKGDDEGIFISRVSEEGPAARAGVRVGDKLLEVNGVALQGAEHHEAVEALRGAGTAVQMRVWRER

Consider KHFRETEV (not fully specified) [peptide 2, C terminus of the HTLV-1 Tax protein], for which the IC50 was determined as 58 µM with SCRIB PDZ domain 3, 5.2 µM in the assay with SCRIB PDZ domain 2 and 3.4 µM with SCRIB PDZ domain 1.
On the same counts, the results for RQIKIWFQNRRMKWKKRSWFETWV (not fully specified) [designed SCRIB PDZ-binding peptide Π-RSWFETWV (peptide 14)] are 3.9 µM, 4.7 µM and 2.2 µM.
